Experimental data reported in article PMC7039193 (The Journal of Cell Biology, 2019).

Target: GST-EVH1 domain of VASP (UniProt P50552 1-113)
Test: pull-down

Chain of GST-EVH1 domain of VASP (P50552 1-113): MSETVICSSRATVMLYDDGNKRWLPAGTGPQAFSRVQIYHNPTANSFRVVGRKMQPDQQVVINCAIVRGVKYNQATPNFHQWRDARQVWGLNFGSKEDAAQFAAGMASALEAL

fold change of TRIM9 precipitated, Trim67-/- lysate against WT lysate: ~2 fold
B1: endogenous TRIM9 (mouse embryonic cortex) (natural protein, mouse (endogenous in embryonic cortex), UniProt Q8C7M3 1-817, looked up)
chain: MEEMEEELKCPVCGSFYREPIILPCSHNLCQACARNILVQTPESESPQSRRASGSGVSDYDYLDLDKMSLYSEADSGYGSYGGFASAPTTPCQKSPNGVRVFPPAMPPPPTHLSPALAPVPRNSCITCPQCHRSLILDDRGLRGFPKNRVLEGVIDRYQQSKAAALKCQLCEKAPKEATVMCEQCDVFYCDPCRLRCHPPRGPLAKHRLVPPAQGRVSRRLSPRKVSTCTDHELENHSMYCVQCKMPVCYQCLEEGKHSSHEVKALGAMWKLHKSQLSQALNGLSDRAKEAKEFLVQLRTMVQQIQENSVEFEACLVAQCDALIDALNRRKAQLLARVNKEHEHKLKVVRDQISHCTVKLRQTTGLMEYCLEVIKENDPSGFLQISDALIRRVHLTEDQWGKGTLTPRMTTDFDLSLDNSPLLQSIHQLDFVQVKASSPVPATPILQLEECCTHNNSATLSWKQPPLSTVAADGYILELDDGSGGQFREVYVGKETMCTVDGLHFNSTYNARVKAFNKTGVSPYSKTLVLQTSEAAGAHETKPMKDTDSEEQTLPFPVPSERLPLRRMSPFSSTLNLQPSFPGRSYFDFRSSPHQLSLHSSLQSLNAPGCNFETQSASYSQLVDIKKLLAVAWFAFDPGSAHSDIIFSNDNLTVTCSSYDDRVVLGKTGFSKGVHYWELTIDRYDNHPDPAFGVARIDVMKDMMLGKDDKAWAMYVDNNRSWFMHNNSHTNRTEGGITKGATIGVLLDLNRKTLTFFVNNEQQGPIAFENVEGLFFPAVSLNRNVQVSLWAPGLRACSGCYFKVCPGAVKSPQAPAP
